The supplement of paper PMC9112550, “Optimization of the antimicrobial peptide Bac7 by deep mutational scanning” (BMC Biology, 2022)

Tested on: Escherichia coli TOP10
Assay: shrunken log2 fold change of peptide-encoding DNA abundance (4.5 h post-induction vs induction); higher = less antimicrobial activity (less host growth inhibition)
Conditions: time post-induction: 4.5 h; library: site-saturation at positions 5, 18, 19, 20
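Further: peptides expressed intracellularly from a pBAD plasmid library in pooled LB shake-flask culture, induced with 0.3% L-arabinose, DNA abundance read by NGS, three biological replicates, DESeq2 with apeglm shrinkage.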

Row | Sequence | shrunken log2 fold change
1 | RRIRLRPPRLPRPRPRPTETPRP | -0.021
2 | RRIRDRPPRLPRPRPRPSSRPRP | -0.0968
3 | RRIRPRPPRLPRPRPRPHKCPRP | -0.19
4 | RRIRHRPPRLPRPRPRPFIEPRP | -0.276
5 | RRIRGRPPRLPRPRPRPLRMPRP | 0.848
6 | RRIRHRPPRLPRPRPRPQWDPRP | -0.0406
7 | RRIRKRPPRLPRPRPRPLTRPRP | 0.31
8 | RRIRWRPPRLPRPRPRPFLVPRP | -0.293
9 | RRIRPRPPRLPRPRPRPFLPPRP | -0.0925
10 | RRIRLRPPRLPRPRPRPVPTPRP | 0.0616
11 | RRIRCRPPRLPRPRPRPQGWPRP | -0.0139
12 | RRIRHRPPRLPRPRPRPFCEPRP | -0.394
13 | RRIRRRPPRLPRPRPRPVTEPRP | 0.285
14 | RRIRDRPPRLPRPRPRPTWVPRP | 0.323
15 | RRIRERPPRLPRPRPRPSGVPRP | -0.157
16 | RRIRYRPPRLPRPRPRPCQLPRP | -0.00957
17 | RRIRNRPPRLPRPRPRPDGCPRP | 0.136
18 | RRIRTRPPRLPRPRPRPPTFPRP | -0.203
19 | RRIRGRPPRLPRPRPRPEKRPRP | 0.993
20 | RRIRMRPPRLPRPRPRPYCLPRP | 0.146
21 | RRIRERPPRLPRPRPRPLIGPRP | -0.0644
22 | RRIRQRPPRLPRPRPRPRPEPRP | 0.646

Row | Sequence | shrunken log2 fold change
23 | RRIRVRPPRLPRPRPRPIEKPRP | 0.0502
24 | RRIRNRPPRLPRPRPRPYTSPRP | -0.325
25 | RRIRHRPPRLPRPRPRPGCGPRP | 0.417
26 | RRIRVRPPRLPRPRPRPRSFPRP | 0.029
27 | RRIRIRPPRLPRPRPRPEPGPRP | 0.253
28 | RRIRCRPPRLPRPRPRPTRPPRP | 0.938
29 | RRIRSRPPRLPRPRPRPICRPRP | -0.0192
30 | RRIRTRPPRLPRPRPRPHYHPRP | -0.853
31 | RRIRVRPPRLPRPRPRPTGEPRP | 0.187
32 | RRIRYRPPRLPRPRPRPTMCPRP | -0.159
33 | RRIRYRPPRLPRPRPRPFWRPRP | 0.0184
34 | RRIRMRPPRLPRPRPRPAKQPRP | 1.12
35 | RRIRFRPPRLPRPRPRPRRPPRP | 0.668
36 | RRIRARPPRLPRPRPRPQCDPRP | 0.0205
37 | RRIRNRPPRLPRPRPRPQCLPRP | 0.197
38 | RRIRGRPPRLPRPRPRPCMQPRP | -0.0315
39 | RRIRYRPPRLPRPRPRPCEYPRP | -0.138
40 | RRIRQRPPRLPRPRPRPRECPRP | 0.147
41 | RRIRLRPPRLPRPRPRPLLEPRP | -0.0263
42 | RRIRWRPPRLPRPRPRPEANPRP | 1.14
43 | RRIRTRPPRLPRPRPRPRPTPRP | 0.626
44 | RRIRMRPPRLPRPRPRPQERPRP | -0.00224

Row | Sequence | shrunken log2 fold change
45 | RRIRERPPRLPRPRPRPSISPRP | 0.0881
46 | RRIRWRPPRLPRPRPRPWFAPRP | 0.135
47 | RRIRFRPPRLPRPRPRPMFRPRP | 0.0591
48 | RRIRRRPPRLPRPRPRPAYHPRP | 0.0468
49 | RRIRPRPPRLPRPRPRPFHHPRP | -0.763
50 | RRIRYRPPRLPRPRPRPCLMPRP | -0.225
51 | RRIRYRPPRLPRPRPRPHWSPRP | -0.318
52 | RRIRIRPPRLPRPRPRPMPCPRP | 0.00854
53 | RRIRGRPPRLPRPRPRPITCPRP | -0.00623
54 | RRIRSRPPRLPRPRPRPTHHPRP | 0.189
55 | RRIRQRPPRLPRPRPRPCKHPRP | -1.29
56 | RRIRTRPPRLPRPRPRPHAHPRP | -0.117
57 | RRIRNRPPRLPRPRPRPVTRPRP | -0.124
58 | RRIRFRPPRLPRPRPRPDIRPRP | 0.0306
59 | RRIRGRPPRLPRPRPRPDFFPRP | 1.1
60 | RRIRWRPPRLPRPRPRPFQHPRP | 0.0415
61 | RRIRCRPPRLPRPRPRPEYKPRP | -0.415
62 | RRIRWRPPRLPRPRPRPQSNPRP | -0.124
63 | RRIRNRPPRLPRPRPRPVPFPRP | 0.041
64 | RRIRNRPPRLPRPRPRPIVCPRP | -0.301
65 | RRIRRRPPRLPRPRPRPPLLPRP | 0.675
66 | RRIRVRPPRLPRPRPRPKKMPRP | -0.0803

Row | Sequence | shrunken log2 fold change
67 | RRIRIRPPRLPRPRPRPCHPPRP | -0.447
68 | RRIRTRPPRLPRPRPRPCAGPRP | -0.0463
69 | RRIRHRPPRLPRPRPRPRFMPRP | 0.0821
70 | RRIRKRPPRLPRPRPRPIQSPRP | -0.0332
71 | RRIRMRPPRLPRPRPRPFPPPRP | 0.103
72 | RRIRARPPRLPRPRPRPARQPRP | 0.766
73 | RRIRMRPPRLPRPRPRPLWPPRP | 0.616
74 | RRIRTRPPRLPRPRPRPKHYPRP | -0.339
75 | RRIRTRPPRLPRPRPRPGADPRP | 0.301
76 | RRIRQRPPRLPRPRPRPAADPRP | 0.0593
77 | RRIRMRPPRLPRPRPRPTLGPRP | 0.685
78 | RRIRCRPPRLPRPRPRPNGDPRP | 0.105
79 | RRIRNRPPRLPRPRPRPCNRPRP | -0.00992
80 | RRIRARPPRLPRPRPRPWCFPRP | 0.0976
81 | RRIRTRPPRLPRPRPRPWQEPRP | 0.0948
82 | RRIRTRPPRLPRPRPRPSACPRP | -0.277
83 | RRIRARPPRLPRPRPRPWSGPRP | -0.0707
84 | RRIRHRPPRLPRPRPRPQIYPRP | -0.137
85 | RRIRNRPPRLPRPRPRPDAWPRP | 0.0835
86 | RRIRWRPPRLPRPRPRPRVAPRP | 0.699
87 | RRIRLRPPRLPRPRPRPHSGPRP | -0.0238
88 | RRIRTRPPRLPRPRPRPQTYPRP | -0.0726

Row | Sequence | shrunken log2 fold change
89 | RRIRVRPPRLPRPRPRPWPWPRP | 0.197
90 | RRIRIRPPRLPRPRPRPQRSPRP | -0.0897
91 | RRIRYRPPRLPRPRPRPCFDPRP | -0.808
92 | RRIRDRPPRLPRPRPRPGACPRP | 0.23
93 | RRIRLRPPRLPRPRPRPGFCPRP | 0.272
94 | RRIRPRPPRLPRPRPRPWVKPRP | -0.0754
95 | RRIRKRPPRLPRPRPRPIILPRP | -0.11
96 | RRIRNRPPRLPRPRPRPPKDPRP | 0.131
97 | RRIRNRPPRLPRPRPRPFEKPRP | -0.0819
98 | RRIRMRPPRLPRPRPRPHREPRP | 0.104
99 | RRIRDRPPRLPRPRPRPEHNPRP | 0.14
100 | RRIRWRPPRLPRPRPRPEMMPRP | 0.399
101 | RRIRMRPPRLPRPRPRPKMWPRP | 0.643
102 | RRIRARPPRLPRPRPRPDVLPRP | 0.579
103 | RRIRTRPPRLPRPRPRPIQVPRP | -0.0152
104 | RRIRIRPPRLPRPRPRPWDAPRP | -0.00869
105 | RRIRLRPPRLPRPRPRPFHLPRP | -0.177
106 | RRIRKRPPRLPRPRPRPHREPRP | -0.0175
107 | RRIRGRPPRLPRPRPRPWMMPRP | -0.0114
108 | RRIRIRPPRLPRPRPRPGCHPRP | -0.602
109 | RRIRMRPPRLPRPRPRPFYVPRP | -0.514
